Molecular target: PDZ1/2 domain (Homo sapiens (Human)), P78352
Experiment: SPR, Biacore 3000, PDZ1/2 amine-coupled on CM5 chip, peptide as analyte, 1:1 binding model

PDZ1/2 domain (Homo sapiens (Human)), P78352, sequence (P78352 65-246 limits assumed): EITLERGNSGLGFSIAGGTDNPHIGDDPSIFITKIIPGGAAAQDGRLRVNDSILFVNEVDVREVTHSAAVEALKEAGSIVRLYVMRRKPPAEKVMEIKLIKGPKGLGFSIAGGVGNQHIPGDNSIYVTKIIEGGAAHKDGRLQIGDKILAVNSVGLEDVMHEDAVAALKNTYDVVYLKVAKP

B1: chimeric peptide YE-NA-1 (peptide)
peptide: YGRKKRRQRRRYEKLSSIESDV
modifications: not checked
- Kd: 54.4 nM

From patent US20200385425A1
